In patent publication US11135301B2, “Triblock polypeptide-based nanoparticles for the delivery of hydrophilic drugs” (Duke University, priority 2016, dated 2021):
Values joined by “and” are separate entries in the source; they are usually repeats but may differ in a detail not shown here. Equal entries are not always repeated. Structures can show the parent of a compound that is named as a salt.

Assays:
[1] = SMM conjugation ratio by Ellman's reagent assay; format: physicochemical
Method: Determination of SMM Conjugation Ratio:
Following purification, 2-3 mg of lyophilized ATBP was dissolved in 1 mL ddH20. In order to break any pre-existing disulfide bonds between unconjugated cysteine residues, 100 μL of the conjugate was incubated with 100 μL of Immobilized TCEP Reducing Gel (Thermo Fisher Scientific; Rockford, Ill.) for 1 hr at 25° C. Included spin columns were utilized to separate the TCEP beads from the ATBP conjugates. The solution was then split for use in two parallel assays. To determine the ATBP concentration, a 96-well bicinchoninic acid assay (Thermo Fisher Scientific) was used on a Victor3™ microplate reader (Perkin Elmer; Waltham, Mass.). 10 μL of ATBP solution was mixed with 200 μL of BCA working reagent, incubated for 30 min at 37° C., and was compared to an ATBP standard curve (100, 50, 25, 10, 5, 0 μM) fit to a 2nd order polynomial in order to estimate the ATBP concentration for the absorbance at 560 nm. Each conjugate was measured in triplicate. To determine the concentration of free thiols, a 96-well Ellman's assay was developed for use on the Victor3™ microplate reader at an absorbance of 405 nm. 40 μL of an ATBP solution was mixed with 200 μL of a working reagent (25 μM Ellman's reagent in 100 mM phosphate buffer, 1 mM EDTA, pH 8.0), incubated for 2 h at 25° C., and was compared to a standard curve of the ATBP prior to conjugation (100, 50, 25, 10, 5, 0 μM). […] The conjugation ratio was the difference between the number of cysteines (8/ATBP) and the calculated number of free cysteines.

[2] = Dynamic light scattering (hydrodynamic radius); format: physicochemical; conditions: ATBP or ATBP-SMM conjugate nanoparticles, DLS in PBS at 22° C.
Method: (§1) Static and Dynamic Light Scattering:
(§2) Static and dynamic light scattering measurements were performed on an ALV/CGS-3 goniometer system (Langen, Germany) to determine the Rh and Rg of the ATBP and ATBP-SMM nanoparticle. For the ALV/CGS-3 goniometer system, ATBP and ATBP-SMM conjugates were resuspended in PBS and filtered through 0.22 μm Millex-GV filters into a 10 mm diameter disposable borosilicate glass tube (Fisher). SLS and DLS were measured simultaneously at 22° C. for angles between 30°-150° at 5° increments, where the measurements at each angle was of 3 runs for 15 seconds. The differential refractive index (dn/dc) was quantified by determining the refractive index at five different dilutions using an Abbemat 500 refractometer (Anton Paar, Graz, Austria). DLS data were analyzed by fitting the autocorrelation function to a biexponential decay using the HDRC software package (Germany). The Rh was plotted against angle and extrapolated to zero scattering angle in order to eliminate the effect of the form factor and observe the true hydrodynamic radius. Partial Zimm plots were used to analyze the SLS measurements and ALV/Dynamic and Static FIT and PLOT software was used to determine the Rg and MW of the nanoparticles. The Nagg was calculated by dividing the MW of the nanoparticles by the MW of the ATBP or ATBP-SMM conjugate.
(§3) The detailed procedure was identical to that used to characterize ATBP-SMM conjugates.

[3] = Temperature-programmed turbidimetry (transition temperature Tt); format: physicochemical; conditions: for Tt, Concentration 25 μM / Tt, Concentration 50 μM / Tt, Concentration 100 μM: ATBP or ATBP-SMM conjugate in PBS; for Tt, Concentration 25 μM: ATBP concentration 25 μM; for Tt, Concentration 50 μM: ATBP concentration 50 μM; for Tt, Concentration 100 μM: ATBP concentration 100 μM
Method: Temperature-Programmed Turbidimetry:
To determine the Tt ATBP-SMM conjugate or parent ATBP were resuspended in PBS at ATBP concentrations of […] and the optical density of each sample was measured at 350 nm by ramping the temperature at a rate of 1° C./min on a temperature-controlled UV-vis spectrophotometer (Cary 300 Bio; Varian Instruments, Palo Alto, Calif.). The Tt was determined from the inflection point of the turbidity profile. […]

[4] = Static light scattering (Rg, Nagg, shape factor); format: physicochemical; conditions: for ρ (Rg/Rh) shape factor: computed from DLS and SLS data; for Nagg (chains per nanoparticle) / Rg: nanoparticles; for Nagg (chains per nanoparticle): SLS; for Rg: SLS partial Zimm plot
Method: as §1, §2, §3

[5] = Pyrene fluorescence assay (critical aggregation concentration); format: physicochemical
Method: The CAC of ATBP and ATBP-SMM conjugates were determined by fluorescence spectroscopy using pyrene which was utilized as a probe of the local hydrophobicity. The ratio of the first fluorescence emission peak (I370-373) and the third peak (I381-394) were measured at different ATBP concentrations. The inflection point of the curves was used to determine the CAC.
ATBP-GEM was characterized by DLS, SLS, cryo-TEM, AFM, temperature programmed turbidimetry and pyrene fluorescence assay. The detailed procedure was identical to that used to characterize ATBP-SMM conjugates.

[6] = test system: Colo205 human colon cancer cells; experiment: In vitro cytotoxicity (MTS), Colo205; format: cell-based; conditions: COLO 205, 72 h, Colo 205 cells, GEM equivalent
Method: (§4) HCT116 and Colo205 human colon cancer cells were procured from Duke Cell Culture Facility and were cultured in complete media containing Minimum Essential Medium Eagle (MEME) supplemented with 10% Fetal Bovine Serum (FBS). Cells were maintained at 37° C. and 5% CO2 and passaged every 2-3 days. […] 20 μL of CellTiter 96 AQueous™ (Promega; Madison, Wis.) 3-(4,5,-[…])-5-(3-carboxymethoxyphenyl)-2-(4-sulfophenyl)-2H-tetrazolium (MTS) solution was added to each well and incubated at 37° C. After 2 h of incubation, the absorbance of the solution was measured at 490 nm with a Victor3 microplate reader (Perkin Elmer; Waltham, Mass.).

[7] = test system: subcutaneous HCT116 tumors; experiment: Tumor regression, subcutaneous HCT116 xenograft; format: in vivo, mice; conditions: 25 mg·kg^−1 GEM equivalent i.v. on day 0, 2 and 4, n=6
Method: The PBS control or drugs were administered by tail vein infusion (50 μL/min) of 500 μL. Tumor dimensions and BW were determined 3-4 times a week, and the tumor volume was calculated using the equation: volume [mm^3]=length×width×width×1/2.
BW of mice were monitored and the mice were euthanized upon exceeding 15% loss in BW or if their tumors volume was greater than 1000 mm^3. […] The maximum tolerated dose (MTD) was determined in mice with tumors. Kaplan-Meier analysis was used to compare the cumulative survival and the Sidak test, Tukey Test, Wilcoxon test were carried out using GraphPad Prism 6 software.

[8] = test system: HCT116 human colon cancer cells; experiment: In vitro cytotoxicity (MTS), HCT116; format: cell-based; conditions: HCT-116, 72 h, HCT-116 cells, GEM equivalent
Method: as §4

[9] = reported value in nude mice; cited from earlier work
[10] = Table 1, ATBP or ATBP-SMM conjugate, pyrene assay

Molecule | #SMM/ATBP (number of SMM conjugated per ATBP) [1] | Rh [2] | Tt, Concentration 25 μM [3] [C] | Tt, Concentration 50 μM [3] [C] | Tt, Concentration 100 μM [3] [C] | ρ (Rg/Rh) shape factor [4] | Nagg (chains per nanoparticle) [4] | Rg [4] [nm] | CAC [5, 10] [µM] | IC50 [6] [nM] | median survival time [7] [days] | mean tumor volume ([7]; 12 days after treatment) [mm^3] | IC50 [8] [nM] | terminal half-life [9] [h] | Tt ([3]; FIG. 3(G), thermal turbidimetry at 350 nm) [°C] | CAC ([5]; pyrene fluorescence assay)
CC(C)(C)N1C(=O)C=CC1=O [SMM 8, N-^tbutyl maleimide] | 6.4 | 46.2 nm | 44 | 47 | 41 | 0.963 | 93 | 44.5 | 1.5 |  |  |  |  |  |  | 
CN1C(=O)C=CC1=O [SMM 5, N-methyl maleimide] | 6.8 | 46.8 nm | 45 | 44 | 42 | 0.978 | 62 | 45.7 | 4.9 |  |  |  |  |  |  | 
CS(=O)(=O)OCCN1C(=O)C=CC1=O [SMM 3, N-2-Maleimidoethyl mesylate] | 6.9 | 109.1 nm | 45 | 42 | 38 | 1.06 | 219 | 115.6 | 3.2 |  |  |  |  |  |  | 
CCN1C(=O)C=CC1=O [SMM 6, N-ethyl maleimide] | 7.1 | 62.3 nm | 47 | 46 | 40 | 1.004 | 115 | 62.5 | 3.8 |  |  |  |  |  |  | 
Cl.NCCN1C(=O)C=CC1=O [SMM 2, N-1-(2-Amino-ethyl)-pyrrole-2,5-dione hydrochloride] | 6.9 | 123.5 nm | 49 | 46 | 41 | 1.14 | 50 | 141.0 | 6.6 |  |  |  |  |  |  | 
O=C1C=CC(=O)N1c1ccccc1 [SMM 7, N-Phenyl maleimide] | 7.0 | 49.1 nm | 48 | 44 | 41 | 0.905 | 112 | 44.4 | 1.6 |  |  |  |  |  |  | 
Nc1ccn([C@@H]2O[C@H](CO)[C@@H](O)C2(F)F)c(=O)n1 [GEM, Gemcitabine] |  |  |  |  |  |  |  |  |  | ~46.4 | 21 | 343 | ~4.1 | 3.4 |  | 
O=C1C=CC(=O)N1O [SMM 1, N-hydroxymaleimide] | 7.4 | 87.3 nm | 49 | 46 | 41 | 0.81 | 41 | 77.0 | 8.2 |  |  |  |  |  |  | 
SKGPG-(AGVPG)160-(YG)6-(CGG)8-WP (protein) SKGPGAGVPGAGVPGAGVPGAGVPGAGVPGAGVPGAGVPGAGVPGAGVPGAGVPGAGVPGAGVPGAGVPGAGVPGAGVPGAGVPGAGVPGAGVPGAGVPGAGVPGAGVPGAGVPGAGVPGAGVPGAGVPGAGVPGAGVPGAGVPGAGVPGAGVPGAGVPGAGVPGAGVPGAGVPGAGVPGAGVPGAGVPGAGVPGAGVPGAGVPGAGVPGAGVPGAGVPGAGVPGAGVPGAGVPGAGVPGAGVPGAGVPGAGVPGAGVPGAGVPGAGVPGAGVPGAGVPGAGVPGAGVPGAGVPGAGVPGAGVPGAGVPGAGVPGAGVPGAGVPGAGVPGAGVPGAGVPGAGVPGAGVPGAGVPGAGVPGAGVPGAGVPGAGVPGAGVPGAGVPGAGVPGAGVPGAGVPGAGVPGAGVPGAGVPGAGVPGAGVPGAGVPGAGVPGAGVPGAGVPGAGVPGAGVPGAGVPGAGVPGAGVPGAGVPGAGVPGAGVPGAGVPGAGVPGAGVPGAGVPGAGVPGAGVPGAGVPGAGVPGAGVPGAGVPGAGVPGAGVPGAGVPGAGVPGAGVPGAGVPGAGVPGAGVPGAGVPGAGVPGAGVPGAGVPGAGVPGAGVPGAGVPGAGVPGAGVPGAGVPGAGVPGAGVPGAGVPGAGVPGAGVPGAGVPGAGVPGAGVPGAGVPGAGVPGAGVPGAGVPGAGVPGAGVPGAGVPGAGVPGAGVPGAGVPGAGVPGAGVPGAGVPGAGVPGAGVPGAGVPGAGVPGAGVPGAGVPGAGVPGAGVPGAGVPGAGVPGAGVPGAGVPGAGVPGAGVPGAGVPGYGYGYGYGYGYGCGGCGGCGGCGGCGGCGGCGGCGGWP |  | 50 nm and 50.1 nm | 47 | 44 | 40 | 0.85 | 62 | 42.6 | 3.6 |  |  |  |  |  | 47 | about 3.6 μM
